Assay [1] concerns the target HSP90αM domain (solid phase assays of Figure 2B and 2C). Description: ELISA; solid phase protein–protein interaction assay, dose-dependent; HSP90M domain (100 µg/mL) coated on plate, FN 30, 45, 70 and 120 kDa fragments at varying concentrations in solution. For orientation: An ELISA detects its analyte on a solid surface through an enzyme-linked reagent.
In assay [2] the target is glucocorticoid receptor LBD (Homo sapiens) (UniProt P04150). As to conditions: cited from earlier work.
Sequence of glucocorticoid receptor LBD (Homo sapiens) (P04150 523-777): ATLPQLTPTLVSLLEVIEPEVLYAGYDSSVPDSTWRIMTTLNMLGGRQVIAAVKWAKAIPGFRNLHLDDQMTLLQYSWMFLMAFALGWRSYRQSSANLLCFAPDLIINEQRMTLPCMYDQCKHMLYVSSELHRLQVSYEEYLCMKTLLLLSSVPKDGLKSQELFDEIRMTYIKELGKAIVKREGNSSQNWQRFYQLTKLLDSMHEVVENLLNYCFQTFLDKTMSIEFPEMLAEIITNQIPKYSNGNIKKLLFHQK
For assay [3], the target named is Tau (Homo sapiens) (UniProt P10636). To be noted: cited from earlier work.
Sequence of Tau (Homo sapiens) (P10636 2-758): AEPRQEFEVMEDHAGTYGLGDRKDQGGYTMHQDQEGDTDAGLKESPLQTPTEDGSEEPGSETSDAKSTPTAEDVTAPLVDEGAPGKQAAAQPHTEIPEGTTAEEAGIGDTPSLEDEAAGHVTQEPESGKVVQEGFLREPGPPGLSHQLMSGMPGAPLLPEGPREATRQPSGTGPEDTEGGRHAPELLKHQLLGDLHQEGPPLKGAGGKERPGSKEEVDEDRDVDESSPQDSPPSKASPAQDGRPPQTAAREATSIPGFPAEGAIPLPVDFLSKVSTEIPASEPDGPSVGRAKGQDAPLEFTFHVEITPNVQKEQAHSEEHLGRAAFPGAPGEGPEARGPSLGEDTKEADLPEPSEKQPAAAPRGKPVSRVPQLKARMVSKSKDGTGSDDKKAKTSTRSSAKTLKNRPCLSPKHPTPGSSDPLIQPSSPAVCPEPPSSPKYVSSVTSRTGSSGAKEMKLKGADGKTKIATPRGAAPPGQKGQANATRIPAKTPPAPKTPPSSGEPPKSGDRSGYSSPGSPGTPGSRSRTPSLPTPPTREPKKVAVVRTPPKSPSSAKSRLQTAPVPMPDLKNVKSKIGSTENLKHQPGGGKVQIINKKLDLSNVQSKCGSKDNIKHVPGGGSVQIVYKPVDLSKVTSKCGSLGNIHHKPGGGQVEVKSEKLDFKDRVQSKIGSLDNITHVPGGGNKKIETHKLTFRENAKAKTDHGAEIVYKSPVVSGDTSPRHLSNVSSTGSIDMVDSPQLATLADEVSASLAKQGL

The source of these data is article PMC7072298.

With “45-kDa gelatin-binding FN fragment (FN45) (domain or fragment)”, in assay [1], the Kd of FN45 relative to that of FN30 (fold higher) turned out to be 3 fold.

For orientation: Kd means the equilibrium constant for the complex coming apart. “70-kDa N-terminal FN fragment (FN70) (domain or fragment)” returned a Kd in assay [1] of 500 nM.

As to HSP90 (from UniProt P02829), the Kd in assay [2] is 800 nM.

As for HSP90 (from UniProt P07900), the dissociation constant Kd in assay [3] is 4800 nM.

“N-terminal FN 30-kDa heparin-binding fragment (FN30) (domain or fragment)” showed a Kd in assay [1] of 70 nM.
